Source: PMC2849977 (2009)

B1: KIAA1718 1-488 (protein)
chain: MAGAAAAVAAGAAAGAAAAAVSVAAPGRASAPPPPPPVYCVCRQPYDVNRFMIECDICKDWFHGSCVGVEEHHAVDIDLYHCPNCAVLHGSSLMKKRRNWHRHDYTEIDDGSKPVQAGTRTFIKELRSRVFPSADEIIIKMHGSQLTQRYLEKHGFDVPIMVPKLDDLGLRLPSPTFSVMDVERYVGGDKVIDVIDVARQADSKMTLHNYVKYFMNPNRPKVLNVISLEFSDTKMSELVEVPDIAKKLSWVENYWPDDSVFPKPFVQKYCLMGVQDSYTDFHIDFGGTSVWYHVLWGEKIFYLIKPTDENLARYESWSSSVTQSEVFFGDKVDKCYKCVVKQGHTLFVPTGWIHAVLTSQDCMAFGGNFLHNLNIGMQLRCYEMEKRLKTPDLFKFPFFEAICWFVAKNLLETLKELREDGFQPQTYLVQGVKALHTALKLWMKKELVSEHAFEIPDNVRPGHLIKELSKVIRAIEEENGKPVKSQGI
B2: PHF8 1-447 (protein)
chain: MNRSRAIVQRGRVLPPPAPLDTTNLAGRRTLQGRAKMASVPVYCLCRLPYDVTRFMIECDMCQDWFHGSCVGVEEEKAADIDLYHCPNCEVLHGPSIMKKRRGSSKGHDTHKGKPVKTGSPTFVRELRSRTFDSSDEVILKPTGNQLTVEFLEENSFSVPILVLKKDGLGMTLPSPSFTVRDVEHYVGSDKEIDVIDVTRQADCKMKLGDFVKYYYSGKREKVLNVISLEFSDTRLSNLVETPKIVRKLSWVENLWPEECVFERPNVQKYCLMSVRDSYTDFHIDFGGTSVWYHVLKGEKIFYLIRPTNANLTLFECWSSSSNQNEMFFGDQVDKCYKCSVKQGQTLFIPTGWIHAVLTPVDCLAFGGNFLHSLNIEMQLKAYEIEKRLSTADLFRFPNFETICWYVGKHILDIFRGLRENRRHPASYLVHGGKALNLAFRAWTRKE

Molecular target: histone H3 peptide H3K4me3-K9me2 1-24 (Homo sapiens, UniProt P68431, H3K4me3+H3K9me2)
Experiment: ITC

Row | Binder | Kd
1 | B1 | ~300 nM
2 | B2 | ~1000 nM
